T1: DFNB31_1, Q9P202
T1 sequence (Q9P202 135-233, limits assumed, looked up): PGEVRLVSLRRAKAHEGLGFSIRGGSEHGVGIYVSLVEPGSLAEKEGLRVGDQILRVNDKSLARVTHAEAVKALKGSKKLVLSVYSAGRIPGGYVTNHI

T2: HTRA3, P83110
T2 sequence (P83110 354-453, limits assumed, looked up): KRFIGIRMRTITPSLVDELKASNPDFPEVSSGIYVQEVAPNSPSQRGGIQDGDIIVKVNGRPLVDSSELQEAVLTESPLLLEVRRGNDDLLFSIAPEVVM

T3: TJP3_3, O95049
T3 sequence (O95049 375-456, limits assumed, looked up): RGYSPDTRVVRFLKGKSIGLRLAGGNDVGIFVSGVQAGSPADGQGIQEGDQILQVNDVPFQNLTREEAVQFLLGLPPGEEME

T4: ARHGAP21, Q5T5U3
T4 sequence (Q5T5U3 45-169, limits assumed, looked up): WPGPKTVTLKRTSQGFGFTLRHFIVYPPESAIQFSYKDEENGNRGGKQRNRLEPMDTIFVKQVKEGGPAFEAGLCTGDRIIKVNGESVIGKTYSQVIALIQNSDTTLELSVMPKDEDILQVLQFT

T5: APBA2_2, Q99767
T5 sequence (Q99767 654-744, limits assumed, looked up): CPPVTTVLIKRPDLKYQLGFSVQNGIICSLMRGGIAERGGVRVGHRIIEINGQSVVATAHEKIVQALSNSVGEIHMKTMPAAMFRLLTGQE

T6: DFNB31_3, Q9P202
T6 sequence (Q9P202 811-907, limits assumed, looked up): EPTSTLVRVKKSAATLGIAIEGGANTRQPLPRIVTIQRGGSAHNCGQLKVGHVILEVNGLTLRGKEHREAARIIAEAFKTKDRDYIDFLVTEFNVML

T7: RAPGEF6, Q8TEU7
T7 sequence (Q8TEU7 525-625, limits assumed, looked up): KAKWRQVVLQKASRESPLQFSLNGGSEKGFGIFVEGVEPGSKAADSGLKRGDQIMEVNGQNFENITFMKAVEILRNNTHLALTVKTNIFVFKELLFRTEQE

T8: MPDZ_12, O75970
T8 sequence (O75970 1857-1958, limits assumed, looked up): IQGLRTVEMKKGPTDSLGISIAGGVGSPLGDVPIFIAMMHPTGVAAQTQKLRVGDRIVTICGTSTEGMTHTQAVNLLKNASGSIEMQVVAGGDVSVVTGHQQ

T9: LNX2_2, Q8N448
T9 sequence (Q8N448 334-432, limits assumed, looked up): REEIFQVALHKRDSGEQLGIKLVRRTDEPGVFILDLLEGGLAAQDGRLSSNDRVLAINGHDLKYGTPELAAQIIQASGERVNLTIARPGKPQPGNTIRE

T10: SNTG1, Q9NSN8
T10 sequence (Q9NSN8 52-150, limits assumed, looked up): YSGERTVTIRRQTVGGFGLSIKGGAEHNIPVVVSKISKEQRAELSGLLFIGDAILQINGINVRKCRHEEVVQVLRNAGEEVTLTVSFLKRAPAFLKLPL

T11: SNTB1, Q13884
T11 sequence (Q13884 107-205, limits assumed, looked up): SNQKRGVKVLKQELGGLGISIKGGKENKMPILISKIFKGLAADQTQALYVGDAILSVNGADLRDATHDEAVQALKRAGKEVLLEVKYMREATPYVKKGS

T12: DFNB31_2, Q9P202
T12 sequence (Q9P202 274-371, limits assumed, looked up): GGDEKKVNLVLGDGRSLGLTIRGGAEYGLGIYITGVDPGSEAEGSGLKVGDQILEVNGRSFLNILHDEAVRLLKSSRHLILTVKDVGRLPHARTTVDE

T13: CARD11, Q9BXL7
T13 sequence (Q9BXL7 662-765, limits assumed, looked up): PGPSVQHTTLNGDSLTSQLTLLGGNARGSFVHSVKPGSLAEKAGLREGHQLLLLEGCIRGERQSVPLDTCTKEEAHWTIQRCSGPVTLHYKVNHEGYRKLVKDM


Each binder was assayed against T1, DFNB31_1, Q9P202 (assay: holdup assay). Details: plain residues with an end cap or a label only (N-terminal biotin on a linker: ado-ado).
Set-up: key: below the threshold = too weak to quantify, mostly under pKd 3.1 to 4
ETQVTAETVI [TMEM225B, P0DP42] gave a pKd of 4.59.
In the case of SGSLKLMTTV [DACT1, Q9NYF0], the pKd is reported as 3.56.

These binders were tested against Inadl_10, Q8NI35 (assay: holdup assay). Details: plain residues with an end cap or a label only (N-terminal biotin on a linker: ado-ado).
Inadl_10, Q8NI35, sequence (Q8NI35 1673-1763): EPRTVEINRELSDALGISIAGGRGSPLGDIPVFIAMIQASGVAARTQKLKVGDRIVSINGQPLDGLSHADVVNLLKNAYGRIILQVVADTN
Set-up: key: below the threshold = too weak to quantify, mostly under pKd 3.1 to 4
ETQVTAETVI [TMEM225B, P0DP42] was tested, and the pKd was “below the threshold”.
With SGSLKLMTTV [DACT1, Q9NYF0] the pKd was 3.84.

Each binder was assayed against T2, HTRA3, P83110 (assay: holdup assay). Details: plain residues with an end cap or a label only (N-terminal biotin on a linker: ado-ado).
Set-up: key: below the threshold = too weak to quantify, mostly under pKd 3.1 to 4
With ETQVTAETVI [TMEM225B, P0DP42] the pKd was “below the threshold”.
For SGSLKLMTTV [DACT1, Q9NYF0], the pKd was “below the threshold”.

These binders were tested against NOS1, P29475 (assay: holdup assay). Details: plain residues with an end cap or a label only (N-terminal biotin on a linker: ado-ado).
NOS1, P29475, sequence (P29475 9-101): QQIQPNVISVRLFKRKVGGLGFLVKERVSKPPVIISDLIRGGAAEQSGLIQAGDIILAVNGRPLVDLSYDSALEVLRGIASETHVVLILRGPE
Set-up: key: below the threshold = too weak to quantify, mostly under pKd 3.1 to 4
ETQVTAETVI [TMEM225B, P0DP42] showed a pKd of 3.53.
With SGSLKLMTTV [DACT1, Q9NYF0] the pKd was “below the threshold”.

Each binder was assayed against T3, TJP3_3, O95049 (assay: holdup assay). Details: plain residues with an end cap or a label only (N-terminal biotin on a linker: ado-ado).
Set-up: key: below the threshold = too weak to quantify, mostly under pKd 3.1 to 4
With ETQVTAETVI [TMEM225B, P0DP42] the pKd was “below the threshold”.
With SGSLKLMTTV [DACT1, Q9NYF0] the pKd was “below the threshold”.

What follows are binders tested against T4, ARHGAP21, Q5T5U3 (assay: holdup assay). Details: plain residues with an end cap or a label only (N-terminal biotin on a linker: ado-ado).
Set-up: key: below the threshold = too weak to quantify, mostly under pKd 3.1 to 4
With ETQVTAETVI [TMEM225B, P0DP42] the pKd was “below the threshold”.
For SGSLKLMTTV [DACT1, Q9NYF0], the pKd was “below the threshold”.

The binders below were run against T5, APBA2_2, Q99767 (assay: holdup assay). Details: plain residues with an end cap or a label only (N-terminal biotin on a linker: ado-ado).
Set-up: key: below the threshold = too weak to quantify, mostly under pKd 3.1 to 4
ETQVTAETVI [TMEM225B, P0DP42] was tested, and the pKd was “below the threshold”.
For SGSLKLMTTV [DACT1, Q9NYF0], the pKd was “below the threshold”.

These binders were tested against Inadl_4, Q8NI35 (assay: holdup assay). Details: plain residues with an end cap or a label only (N-terminal biotin on a linker: ado-ado).
Inadl_4, Q8NI35, sequence (Q8NI35 547-651): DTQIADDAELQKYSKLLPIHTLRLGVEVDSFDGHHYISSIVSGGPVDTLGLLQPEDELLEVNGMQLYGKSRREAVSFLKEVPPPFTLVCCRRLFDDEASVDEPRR
Set-up: key: below the threshold = too weak to quantify, mostly under pKd 3.1 to 4
ETQVTAETVI [TMEM225B, P0DP42] was tested, and the pKd was “below the threshold”.
With SGSLKLMTTV [DACT1, Q9NYF0] the pKd was “below the threshold”.

These binders were tested against NHERF4_2, Q86UT5 (assay: holdup assay). Details: plain residues with an end cap or a label only (N-terminal biotin on a linker: ado-ado).
NHERF4_2, Q86UT5, sequence (Q86UT5 220-308): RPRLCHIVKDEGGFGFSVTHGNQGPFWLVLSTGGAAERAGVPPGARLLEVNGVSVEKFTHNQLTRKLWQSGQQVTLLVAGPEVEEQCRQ
Set-up: key: below the threshold = too weak to quantify, mostly under pKd 3.1 to 4
ETQVTAETVI [TMEM225B, P0DP42] was tested, and the pKd was “below the threshold”.
With SGSLKLMTTV [DACT1, Q9NYF0] the pKd was “below the threshold”.

Each binder was assayed against T6, DFNB31_3, Q9P202 (assay: holdup assay). Details: plain residues with an end cap or a label only (N-terminal biotin on a linker: ado-ado).
Set-up: key: below the threshold = too weak to quantify, mostly under pKd 3.1 to 4
Work on ETQVTAETVI [TMEM225B, P0DP42] yielded a pKd of 4.03.
Work on SGSLKLMTTV [DACT1, Q9NYF0] yielded a pKd of 4.03.

What follows are binders tested against T7, RAPGEF6, Q8TEU7 (assay: holdup assay). Details: plain residues with an end cap or a label only (N-terminal biotin on a linker: ado-ado).
Set-up: key: below the threshold = too weak to quantify, mostly under pKd 3.1 to 4
In the case of ETQVTAETVI [TMEM225B, P0DP42], the pKd is reported as “below the threshold”.
With SGSLKLMTTV [DACT1, Q9NYF0] the pKd was “below the threshold”.

These binders were tested against T8, MPDZ_12, O75970 (assay: holdup assay). Details: plain residues with an end cap or a label only (N-terminal biotin on a linker: ado-ado).
Set-up: key: below the threshold = too weak to quantify, mostly under pKd 3.1 to 4
With ETQVTAETVI [TMEM225B, P0DP42] the pKd was “below the threshold”.
SGSLKLMTTV [DACT1, Q9NYF0] gave a pKd of 3.77.

Each binder was assayed against PICK1, Q9NRD5 (assay: holdup assay). Details: plain residues with an end cap or a label only (N-terminal biotin on a linker: ado-ado).
PICK1, Q9NRD5, sequence (Q9NRD5 17-115): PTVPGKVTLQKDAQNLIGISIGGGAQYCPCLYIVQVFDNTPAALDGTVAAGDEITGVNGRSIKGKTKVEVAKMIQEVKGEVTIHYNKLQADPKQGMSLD
Set-up: key: below the threshold = too weak to quantify, mostly under pKd 3.1 to 4
For ETQVTAETVI [TMEM225B, P0DP42], the pKd was 3.97.
Binder SGSLKLMTTV [DACT1, Q9NYF0] has a pKd of 4.09.

Each binder was assayed against T9, LNX2_2, Q8N448 (assay: holdup assay). Details: plain residues with an end cap or a label only (N-terminal biotin on a linker: ado-ado).
Set-up: key: below the threshold = too weak to quantify, mostly under pKd 3.1 to 4
For ETQVTAETVI [TMEM225B, P0DP42], the pKd was 4.46.
SGSLKLMTTV [DACT1, Q9NYF0] gave a pKd of 4.63.

What follows are binders tested against T10, SNTG1, Q9NSN8 (assay: holdup assay). Details: plain residues with an end cap or a label only (N-terminal biotin on a linker: ado-ado).
Set-up: key: below the threshold = too weak to quantify, mostly under pKd 3.1 to 4
For ETQVTAETVI [TMEM225B, P0DP42], the pKd was 3.9.
For SGSLKLMTTV [DACT1, Q9NYF0], the pKd was “below the threshold”.

The binders below were run against MAGI2_6, Q86UL8 (assay: holdup assay). Details: plain residues with an end cap or a label only (N-terminal biotin on a linker: ado-ado).
MAGI2_6, Q86UL8, sequence (Q86UL8 1141-1229): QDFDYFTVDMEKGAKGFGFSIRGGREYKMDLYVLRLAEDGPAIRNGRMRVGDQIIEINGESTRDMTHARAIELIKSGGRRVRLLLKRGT
Set-up: key: below the threshold = too weak to quantify, mostly under pKd 3.1 to 4
For ETQVTAETVI [TMEM225B, P0DP42], the pKd was “below the threshold”.
With SGSLKLMTTV [DACT1, Q9NYF0] the pKd was “below the threshold”.

What follows are binders tested against T11, SNTB1, Q13884 (assay: holdup assay). Details: plain residues with an end cap or a label only (N-terminal biotin on a linker: ado-ado).
Set-up: key: below the threshold = too weak to quantify, mostly under pKd 3.1 to 4
Binder ETQVTAETVI [TMEM225B, P0DP42] has a pKd of 4.8.
SGSLKLMTTV [DACT1, Q9NYF0] showed a pKd of 3.64.

These binders were tested against PTPN3, P26045 (assay: holdup assay). Details: plain residues with an end cap or a label only (N-terminal biotin on a linker: ado-ado).
PTPN3, P26045, sequence (P26045 505-587): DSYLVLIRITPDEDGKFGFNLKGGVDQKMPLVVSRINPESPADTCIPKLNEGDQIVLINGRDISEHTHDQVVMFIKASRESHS
Set-up: key: below the threshold = too weak to quantify, mostly under pKd 3.1 to 4
Binder ETQVTAETVI [TMEM225B, P0DP42] has a pKd of 4.59.
In the case of SGSLKLMTTV [DACT1, Q9NYF0], the pKd is reported as 3.8.

What follows are binders tested against GIPC2, Q8TF65 (assay: holdup assay). Details: plain residues with an end cap or a label only (N-terminal biotin on a linker: ado-ado).
GIPC2, Q8TF65, sequence (Q8TF65 112-203): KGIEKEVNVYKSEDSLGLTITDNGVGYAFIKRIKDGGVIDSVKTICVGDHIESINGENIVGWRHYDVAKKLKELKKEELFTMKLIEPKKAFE
Set-up: key: below the threshold = too weak to quantify, mostly under pKd 3.1 to 4
For ETQVTAETVI [TMEM225B, P0DP42], the pKd was “below the threshold”.
With SGSLKLMTTV [DACT1, Q9NYF0] the pKd was “below the threshold”.

These binders were tested against SCRIB_1, Q14160 (assay: holdup assay). Details: plain residues with an end cap or a label only (N-terminal biotin on a linker: ado-ado).
SCRIB_1, Q14160, sequence (Q14160 718-814): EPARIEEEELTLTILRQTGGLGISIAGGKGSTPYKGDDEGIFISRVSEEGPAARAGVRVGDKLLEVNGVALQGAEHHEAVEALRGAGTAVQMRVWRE
Set-up: key: below the threshold = too weak to quantify, mostly under pKd 3.1 to 4
Binder ETQVTAETVI [TMEM225B, P0DP42] has a pKd of 4.24.
With SGSLKLMTTV [DACT1, Q9NYF0] the pKd was 3.98.

These binders were tested against SNX27, Q96L92 (assay: holdup assay). Details: plain residues with an end cap or a label only (N-terminal biotin on a linker: ado-ado).
Set-up: key: below the threshold = too weak to quantify, mostly under pKd 3.1 to 4
For ETQVTAETVI [TMEM225B, P0DP42], the pKd was 5.39.
In the case of SGSLKLMTTV [DACT1, Q9NYF0], the pKd is reported as 4.35.

These binders were tested against FRMPD4, Q14CM0 (assay: holdup assay). Details: plain residues with an end cap or a label only (N-terminal biotin on a linker: ado-ado).
FRMPD4, Q14CM0, sequence (Q14CM0 67-160): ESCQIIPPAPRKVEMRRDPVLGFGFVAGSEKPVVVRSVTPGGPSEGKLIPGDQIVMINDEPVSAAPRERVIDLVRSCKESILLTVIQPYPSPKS
Set-up: key: below the threshold = too weak to quantify, mostly under pKd 3.1 to 4
In the case of ETQVTAETVI [TMEM225B, P0DP42], the pKd is reported as “below the threshold”.
In the case of SGSLKLMTTV [DACT1, Q9NYF0], the pKd is reported as “below the threshold”.

These binders were tested against T12, DFNB31_2, Q9P202 (assay: holdup assay). Details: plain residues with an end cap or a label only (N-terminal biotin on a linker: ado-ado).
Set-up: key: below the threshold = too weak to quantify, mostly under pKd 3.1 to 4
ETQVTAETVI [TMEM225B, P0DP42] was tested, and the pKd was “below the threshold”.
SGSLKLMTTV [DACT1, Q9NYF0] was tested, and the pKd was “below the threshold”.

The binders below were run against T13, CARD11, Q9BXL7 (assay: holdup assay). Details: plain residues with an end cap or a label only (N-terminal biotin on a linker: ado-ado).
Set-up: key: below the threshold = too weak to quantify, mostly under pKd 3.1 to 4
For ETQVTAETVI [TMEM225B, P0DP42], the pKd was “below the threshold”.
SGSLKLMTTV [DACT1, Q9NYF0] was tested, and the pKd was “below the threshold”.

The binders below were run against IL16_3, Q14005 (assay: holdup assay). Details: plain residues with an end cap or a label only (N-terminal biotin on a linker: ado-ado).
IL16_3, Q14005, sequence (Q14005 1107-1207): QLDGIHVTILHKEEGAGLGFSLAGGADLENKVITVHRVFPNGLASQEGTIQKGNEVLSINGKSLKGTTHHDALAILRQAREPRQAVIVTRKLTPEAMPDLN
Set-up: key: below the threshold = too weak to quantify, mostly under pKd 3.1 to 4
ETQVTAETVI [TMEM225B, P0DP42] was tested, and the pKd was “below the threshold”.
With SGSLKLMTTV [DACT1, Q9NYF0] the pKd was “below the threshold”.

Source: article PMC9482650, “Quantitative fragmentomics allow affinity mapping of interactomes” (Nature Communications, 2022)
